Measurements published in patent US20220195070A1.
Residue numbers refer to the chain shown, from its start.

B1: SKA0054 (antibody, V domains shown)
VH: QSLEESGGGLVQPEGSLTLTCTASGFSFSSSFWICWVRQAPGKGLEWLACIDAGSSDNTYYANWAKGRFTISKTSSTTVTLQMTSLTDADTATYFCARDRDAAGDAGYGYATSFNLWGPGTLVTVSS
VL: AIDMTQTPSSVSAAVGGTVTINCQASESIYSNLAWYQQKPGQRPKLLIYLASTLASGVPSRFKGSGSGTEFTLTISDLECADAATYYCQSVYYDSRGDTFFWAFGGGTEVVVKG
B2: SKA0028 (antibody, V domains shown)
VH: QSVEESGGRLVTPGTPLTLTCTASGFTISSYHMSWVRQAPGKGLEWIGIIHGSGNMWYASWAKGRFTISRTSTTVDLEITSPTTEDTATYFCARIRFWASSNYYYFYLWGQGTLVTVSS
VL: ALVMTQTPASVSEPVGGTVTINCQASQNIYSNLAWYQQKPGQRPRLLIYGASNLESGVPSRFRGSGSGTEFTLTISDLECADAATYYCQSAYWGNNNDGAFGGGTEVVVKG
B3: SKA0027 (antibody, V domains shown)
VH: QEQLVESGGGLVQPEGSLTLTCTASGFSFSSSDYMCWVRQAPGKGLEWIGCIYTGSGSTYYASWAKGRFTISKTSSTTVTLQMTSLTAADTATFFCARRGDSYSNYSFKLWGPGTLVTVSS
VL: AFELTQTPASVEAAVGGTVTIKCQASQNIYSNLAWYQQKPGQPPKLLIYTASSLASGVSSRFKGSGSGTEFTLTISDLECDDAATYYCQCTYINNGYGNTFGGGTEVVVKG
B4: SKA0001 (antibody, V domains shown)
VH: QSVEESGGRLVTPGTPLTLTCTVSGFSLSYYAMNWVRQAPGKGLEWIGIIGISGGTYYASWAKGRFTISKSSSTTVDLKMTSPTTEDTATYFCARGGSAWGDLWGQGTLVTVSS
VL: DIVMTQTPSSVSAAVGGTVTINCQASQSISRLLAWYQQKPGQPPKVLMHDASDLASGVPSRFKGSGSGTEYTLTISDLECADAATYYCQSYYWGSSGDIGYPFGGGTEVVVKG
B5: SKA0171 (antibody, V domains shown)
VH: QSLEESGGGLVQPEGSLTLSCTASGFSFSSSYYMCWVRQAPGKGLEWIACIYGGNSVITYYANWAKGRFTISETSSTTVTLQMTSLTAADTATYFCAREVHYDYLYTTYGYANLWGPGTLVTVSS
VL: AIKMTQTPASVSAVVGGTVTINCQASETIYSGLAWYQQKPGQPPKLLIYDTANLETGVSSRFKGSGSGTEYTLTISDLECDDAATYFCLYAYYSGGSADNAFGGGTEVVVKG
B6: SKA0117 (antibody, V domains shown)
VH: QSLEESGGDLVKPEGSLTLTCTASGFSFSSSHYMCWVRQAPGKGLEWIACIYAGSSDNTYYASWAKGRFTISKTSSTTVTLQMTSLTAADTATYFCARDTYGYVGYASAGGFFNLWGPGTLVTVSS
VL: ALVMTQTPASVSAAVGGTVTINCQASHNIYSVLAWYQQKPGQRPRLLIYGASNLESGVPSRFKGSGSGTEYTLTISDLECDDAATYYCQSAYYSSSTGDNAFGGGTEVVVKG
B7: SKA0141 (antibody, V domains shown)
VH: QSLEESGGDLVKPGASLTLTCTASGFSFSSSYYMCWVRQAPGKGLEWIACIYAGSSGSTYYASWAKGRFTISKTSSTTVTLQMTSLTAADTATYFCARDGDENMLVGGYFNLWGPGTLVTVSS
VL: B6 VL with A9S, V32N, R45K, S96N, T97A, D99Y
B8: SKA0046 (antibody, V domains shown)
VH: QEQLVESGGGLVQPEGSLTLTCTASGFSLSSSNYMWWVRQAPGKGLEWIACIHASSSGDTYYANWAKGRFTISKTSSTTVTLQMTSLTAADTATYFCARGGYIYGDGGYNGVAGFSLWGPGTLVTVSS
VL: DVVMTQTPASVSEPVGGTVTIKCQASETIGNALAWYQQKPGQRPKLLIYGASNLESGVPSRFKGSGSGTEFTLTISDVQCDDAATYYCQSIYYSSSADTFFFPFGGGTEVVVKG
B9: SKA0016 (antibody, V domains shown)
VH: QEQLVESGGGLVQPEGSLTLTCTASGFSFSSSDYMCWVRQAPGKGLEWIACIYIGSNGDTFYASWAKGRFTISKTSSTTVTLQMTSLTAADTATYFCARDSRRADDYGTRLDLWGQGTLVTVSS
VL: DIVMTQTPSSVSAAVGGTVTIKCQASQNIYRNLAWYQQKPGQPPKLLIYQASKLESGVPSRFKGSGSGTEFTLTISDLDCDDAASYYCQSISYISSGDTFFWAFGGGTEVVVKG
B10: SKA0127 (antibody, V domains shown)
VH: QSVEESGGRLVTPGTPLTLTCTVSGIDLSTYAMTWVRQAPGKGLEYIGYINGGGSAYYASWVNGRFTISKTSTTADLKITSPTTEDTATYFCARGPVGSYHRIWGPGTLVTVSS
VL: ALVMTQTPSSVSEPVGGTVTINCRASEDIESYLAWYQQKPGQPPKLLIYATSNLETGVPSRFKGSGSGTDYTLTISGVQCADAATYYCQGYYELSSIDNNAFGGGTEVVVKG
B11: SKA0009 (antibody, V domains shown)
VH: QSVEESGGRLVTPGTSLTLTCTVSGIDLSSYGMGWVRQAPGMGLEYIGIIYAAGRTYYASWVKGRFIISKTSTTVDLEMTSLTTEDTATYFCARHGSWYAGMDLWGPGTLVTVSS
VL: AIEMTQTPSPVSAAVGGTVSINCQASEDIENYFAWYQQKPGQPPKLLIYDASELASGVPSRFSGSGSGTDFTLTISGVQCDDAATYYCQHADYAASSENTFGGGTEVVVKG
B12: SKA0052 (antibody, V domains shown)
VH: QSLEESGGDLVKSGASLTLTCTASGFSFSSSYYMCWVRQAPGKGLEWIACIYTGSNGDTYYASWANGRFTISKASSTTVTLQMTSLTAADTATYFCARYTYDDDGDYTSFNLWGPGTLVTVSS
VL: ALVMTQTPSSVSADVGGTVTINCQASQNIYRNLAWYQQKPGQRPKLLIYGASNLEPGVPSRFKGSGSGTEFTLTISDLECDDAATYYCQSVGYSGSVDTFFYAFGGGTEVVVKG

Key:
Anti-hC5 Antibody [1] = assay: SPR (Biacore T200), 25 C, pH 7.4; SKA antibody captured by anti-rabbit IgG, Anti-hC5 Antibody injected 0-800 nM
Anti-hC5 Antibody [2] = assay: sandwich ELISA: SKA antibody coated, Anti-hC5 Antibody in pooled human serum, then human C5, mouse anti-hC5, anti-mouse-POD; incubation 19 min; blank OD 0.030
Anti-hC5 Antibody [3] = assay: sandwich ELISA: SKA antibody coated, Anti-hC5 Antibody in pooled human serum; OD spiked / OD blank
Anti-hC5 Antibody [4] = assay: sandwich ELISA: SKA antibody coated, Anti-hC5 Antibody in pooled human serum, then human C5, mouse anti-hC5, anti-mouse-POD; incubation 16 min; blank OD 0.030
Anti-hC5 Antibody [5] = assay: sandwich ELISA: SKA antibody coated, Anti-hC5 Antibody in pooled human serum, then human C5, mouse anti-hC5, anti-mouse-POD; incubation 9 min; blank OD 0.027
Anti-hC5 Antibody [6] = assay: sandwich ELISA: SKA antibody coated, Anti-hC5 Antibody in pooled human serum, then human C5, mouse anti-hC5, anti-mouse-POD; incubation 18 min; blank OD 0.032
Anti-hC5 Antibody [7] = assay: sandwich ELISA: SKA antibody coated, Anti-hC5 Antibody in pooled human serum, then human C5, mouse anti-hC5, anti-mouse-POD; incubation 8 min; blank OD 0.027
Anti-hC5 Antibody [8] = assay: sandwich ELISA: SKA antibody coated, Anti-hC5 Antibody in pooled human serum, then human C5, mouse anti-hC5, anti-mouse-POD; incubation 8 min; blank OD 0.026
Anti-hC5 Antibody [9] = assay: SPR (Biacore T200), 25 C, pH 7.4; SKA antibody captured by anti-rabbit IgG, Anti-hC5 Antibody injected 0-800 nM; *reliability might be low
Anti-hC5 Antibody [10] = assay: sandwich ELISA: SKA antibody coated, Anti-hC5 Antibody in pooled human serum, then human C5, mouse anti-hC5, anti-mouse-POD; incubation 21 min; blank OD 0.032
Anti-hC5 Antibody [11] = assay: sandwich ELISA: SKA antibody coated, Anti-hC5 Antibody in pooled human serum, then human C5, mouse anti-hC5, anti-mouse-POD; incubation 14 min; blank OD 0.028
Anti-hC5 Antibody [12] = assay: sandwich ELISA: SKA antibody coated, Anti-hC5 Antibody in pooled human serum, then human C5, mouse anti-hC5, anti-mouse-POD; incubation 9 min; blank OD 0.028
Anti-hC5 Antibody [13] = assay: sandwich ELISA: SKA antibody coated, Anti-hC5 Antibody in pooled human serum, then human C5, mouse anti-hC5, anti-mouse-POD; incubation 11 min; blank OD 0.027

Sequence of Anti-hC5 Antibody (constant, as listed by the source limits assumed): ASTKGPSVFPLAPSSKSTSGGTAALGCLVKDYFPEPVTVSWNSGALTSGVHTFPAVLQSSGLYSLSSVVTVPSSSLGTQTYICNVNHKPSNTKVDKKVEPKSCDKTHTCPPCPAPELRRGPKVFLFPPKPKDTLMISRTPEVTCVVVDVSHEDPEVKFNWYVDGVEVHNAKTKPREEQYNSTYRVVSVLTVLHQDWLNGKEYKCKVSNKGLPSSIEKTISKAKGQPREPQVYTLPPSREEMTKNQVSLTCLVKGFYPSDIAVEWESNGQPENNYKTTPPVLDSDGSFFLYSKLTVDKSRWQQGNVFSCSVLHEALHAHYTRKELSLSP

Binder | koff (Anti-hC5 Antibody [1]) [s⁻¹] | kon (Anti-hC5 Antibody [1]) [M⁻¹ s⁻¹] | Signal to noise ratio (Anti-hC5 Antibody [3]) | further results
B1 | 0.000197 | 27300 | 2.6 | Kd (Anti-hC5 Antibody [1]): 7.22 nM; OD (Anti-hC5 Antibody spiked) (Anti-hC5 Antibody [2]): 0.077 OD
B2 | – | – | 3 | OD (Anti-hC5 Antibody spiked) (Anti-hC5 Antibody [4]): 0.091 OD
B3 | – | – | 3.4 | OD (Anti-hC5 Antibody spiked) (Anti-hC5 Antibody [5]): 0.093 OD
B4 | – | – | 2.5 | OD (Anti-hC5 Antibody spiked) (Anti-hC5 Antibody [6]): 0.079 OD
B5 | – | – | 4 | OD (Anti-hC5 Antibody spiked) (Anti-hC5 Antibody [7]): 0.106 OD
B6 | – | – | 4.1 | OD (Anti-hC5 Antibody spiked) (Anti-hC5 Antibody [5]): 0.112 OD
B7 | – | – | 4.2 | OD (Anti-hC5 Antibody spiked) (Anti-hC5 Antibody [8]): 0.109 OD
B8 | 5.17e-05 | 88500 | 2.3 | Kd (Anti-hC5 Antibody [9]): 0.585 nM; OD (Anti-hC5 Antibody spiked) (Anti-hC5 Antibody [10]): 0.075 OD
B9 | – | 30900 | 2.5 | Kd (Anti-hC5 Antibody [9]): 0.0191 nM; koff (Anti-hC5 Antibody [9]): 5.9e-07 s⁻¹; OD (Anti-hC5 Antibody spiked) (Anti-hC5 Antibody [4]): 0.076 OD
B10 | 0.000254 | 71800 | 2.8 | OD (Anti-hC5 Antibody spiked) (Anti-hC5 Antibody [11]): 0.078 OD; Kd (Anti-hC5 Antibody [1]): 3.54 nM
B11 | – | 76900 | 3.2 | Kd (Anti-hC5 Antibody [9]): 0.0184 nM; koff (Anti-hC5 Antibody [9]): 1.41e-06 s⁻¹; OD (Anti-hC5 Antibody spiked) (Anti-hC5 Antibody [12]): 0.089 OD
B12 | 0.000196 | 108000 | 3.7 | Kd (Anti-hC5 Antibody [1]): 1.81 nM; OD (Anti-hC5 Antibody spiked) (Anti-hC5 Antibody [13]): 0.098 OD
